Test results as given in patent US20070160576A1, “IL-17A/F heterologous polypeptides and therapeutic uses thereof” (Genentech, Inc., priority 2001, published 2007).

Experiments:
[1] = molecular target: T1, PRO5801 (human IL-17RH1 receptor) (Homo sapiens, UniProt Q9NRM6); assay: Receptor/ligand interaction screening assay (immunoadhesin); format: binding
T1 sequence (Q9NRM6 18-502): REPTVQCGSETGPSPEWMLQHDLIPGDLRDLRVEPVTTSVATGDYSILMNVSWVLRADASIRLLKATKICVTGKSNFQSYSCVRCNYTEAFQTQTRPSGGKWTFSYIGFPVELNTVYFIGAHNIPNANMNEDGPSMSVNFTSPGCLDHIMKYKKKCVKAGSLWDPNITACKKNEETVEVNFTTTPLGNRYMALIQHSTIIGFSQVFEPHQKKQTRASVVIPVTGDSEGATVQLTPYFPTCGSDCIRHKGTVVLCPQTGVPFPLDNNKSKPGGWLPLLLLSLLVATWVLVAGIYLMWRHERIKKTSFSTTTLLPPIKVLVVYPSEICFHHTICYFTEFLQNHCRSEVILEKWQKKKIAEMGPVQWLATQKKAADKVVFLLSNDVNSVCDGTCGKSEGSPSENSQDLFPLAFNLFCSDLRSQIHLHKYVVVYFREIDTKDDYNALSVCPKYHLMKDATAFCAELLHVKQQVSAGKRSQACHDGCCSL
Experimental: (§1) In general, the assay is performed as follows. A PRO polypeptide of the present invention suspected of being a ligand for a receptor is expressed as a fusion protein containing the Fc domain of human IgG (an immunoadhesin). Receptor-ligand binding is detected by allowing interaction of the immunoadhesin polypeptide with cells (e.g. Cos cells) expressing candidate PRO polypeptide receptors and visualization of bound immunoadhesin with fluorescent reagents directed toward the Fc fusion domain and examination by microscope. Cells expressing candidate receptors are produced by transient transfection, in parallel, of defined subsets of a library of cDNA expression vectors encoding PRO polypeptides that may function as receptor molecules. Cells are then incubated for 1 hour in the presence of the PRO polypeptide immunoadhesin being tested for possible receptor binding. The cells are then washed and fixed with paraformaldehyde. The cells are then incubated with fluorescent conjugated antibody directed against the Fc portion of the PRO polypeptide immunoadhesin (e.g. FITC conjugated goat anti-human-Fc antibody). The cells are then washed again and examined by microscope. A positive interaction is judged by the presence of fluorescent labeling of cells transfected with cDNA encoding a particular PRO polypeptide receptor or pool of receptors and an absence of similar fluorescent labeling of similarly prepared cells that have been transfected with other cDNA or pools of cDNA. If a defined pool of cDNA expression vectors is judged to be positive for interaction with a PRO polypeptide immunoadhesin, the individual cDNA species that comprise the pool are tested individually (the pool is “broken down”) to determine the specific cDNA that encodes a receptor able to interact with the PRO polypeptide immunoadhesin.
(§2) In another embodiment of this assay, an epitope-tagged potential ligand PRO polypeptide (e.g., 8 histidine “His” tag) is allowed to interact with a panel of potential receptor PRO polypeptide molecules that have been expressed as fusions with the Fc domain of human IgG (immunoadhesins). Following a 1 hour co-incubation with the epitope tagged PRO polypeptide, the candidate receptors are each immunoprecipitated with protein A beads and the beads are washed. Potential ligand interaction is determined by Western blot analysis of the immunoprecipitated complexes with antibody directed towards the epitope tag. An interaction is judged to occur if a band of the anticipated molecular weight of the epitope tagged protein is observed in the Western blot analysis with a candidate receptor, but is not observed to occur with the other members of the panel of potential receptors.

[2] = molecular target: human IL-17 receptor (IL-17R, PRO1) (Homo sapiens, UniProt Q96F46); assay: as above; format: binding
Experimental: as §1, §2

[3] = molecular target: T2, human IL-17 receptor (IL-17R, PRO1) as tested in the receptor/ligand screen (human, UniProt Q96F46 33-320, limits assumed); assay: receptor/ligand screen (immunoadhesin on transfected cells or co-immunoprecipitation)
T2 construct: also called IL-7R (as misprinted)
From the text: (§3) A PRO polypeptide of the present invention suspected of being a ligand for a receptor is expressed as a fusion protein containing the Fc domain of human IgG (an immunoadhesin). Receptor-ligand binding is detected by allowing interaction of the immunoadhesin polypeptide with cells (e.g. Cos cells) expressing candidate PRO polypeptide receptors and visualization of bound immunoadhesin with fluorescent reagents directed toward the Fc fusion domain and examination by microscope. Cells expressing candidate receptors are produced by transient transfection, in parallel, of defined subsets of a library of cDNA expression vectors encoding PRO polypeptides that may function as receptor molecules. Cells are then incubated for 1 hour in the presence of the PRO polypeptide immunoadhesin being tested for possible receptor binding. The cells are then washed and fixed with paraformaldehyde. […]
(§4) In another embodiment of this assay, an epitope-tagged potential ligand PRO polypeptide (e.g., 8 histidine “His” tag) is allowed to interact with a panel of potential receptor PRO polypeptide molecules that have been expressed as fusions with the Fc domain of human IgG (immunoadhesins). […] Potential ligand interaction is determined by Western blot analysis of the immunoprecipitated complexes with antibody directed towards the epitope tag.

[4] = molecular target: T3, PRO5801 (human IL-17RH1 receptor) as tested in the receptor/ligand screen (human, UniProt Q9NRM6 18-292, limits assumed); assay: as above
T3 sequence (looked up): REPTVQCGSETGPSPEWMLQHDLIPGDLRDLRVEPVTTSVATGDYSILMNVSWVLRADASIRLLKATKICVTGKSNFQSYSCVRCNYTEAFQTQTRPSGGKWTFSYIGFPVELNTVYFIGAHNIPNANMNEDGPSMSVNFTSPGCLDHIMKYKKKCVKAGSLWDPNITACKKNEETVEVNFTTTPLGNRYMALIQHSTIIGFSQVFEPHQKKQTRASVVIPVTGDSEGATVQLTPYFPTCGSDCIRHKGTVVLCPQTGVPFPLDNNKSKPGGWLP
From the text: as §3, §4

B1: PRO1031 (human IL-17B ligand) (ligand, UniProt Q9UHF5 21-180, looked up)
chain: QPRSPKSKRKGQGRPGPLAPGPHQVPLDLVSRMKPYARMEEYERNIEEMVAQLRNSSELAQRKCEVNLQLWMSNKRSLSPWGYSINHDPSRIPVDLPEARCLCLGCVNPFTMQEDRSMVSVPVFSQVPVRRRLCPPPPRTGPCRQRAVMETIAVGCTCIF
B1 was tested, and the “binding to IL-17RH1 receptor (PRO5801)” value [1] was “binds to”, the “binding to human IL-17 receptor (IL-17R, PRO1)” value [2] was “do not bind” and the binding result [3] was “no binding”. B1: binds [4].
